This note sets out measurements from patent US20240181022A1, “AMURINS LYSINS, AND LYSIN-ANTIMICROBIAL PEPTIDE (AMP) CONSTRUCTS ACTIVE AGAINST GRAM-NEGATIVE BACTERIA” (priority 2021, published 2024).

Where no end group is shown, it is not given here.

In one assay the test system is A. xylosoxidans. Nature of the assay: Serial passage resistance development study, A. xylosoxidans. It is filed as cell-based, Achromobacter xylosoxidans. Particulars: A. xylosoxidans, day 28.
In assay [1] the test system is Ralstonia mannitolilytica. Description: MIC by broth microdilution against Ralstonia mannitolilytica. The format is cell-based. The conditions noted are these: N 10. On the procedure:
MIC values were determined by broth microdilution against clinical isolates and resistant isolates from a wide range of bacterial species, including isolates from the CDC Antibiotic Resistance bank, including the GN ESKAPE pathogens and E. coli, including carbapenem-resistant Enterobacteriaciae, Acinetobacter, and Pseudomonas.

For the next assay, the system named is E. cloacae (ATCC 13047). Nature of the assay: microbe, parasite or virus in culture. It is filed as cell-based, Enterobacter cloacae.
A further assay concerns A. baumannii. Description: GN370 time-kill assay, A. baumannii. Particulars: for Log10 CFU/mL: A. baumannii ATCC BAA 747. The format is cell-based, Acinetobacter baumannii. On the procedure:
A kinetic analysis of GN370 bactericidal activity was performed using a time-kill assay format in which CFU reductions of each target organism (P. aeruginosa, K. pneumoniae, A. baumannii, E. coli, and E. cloacae) were measured over 24 hours at 37° C. […] Bactericidal activity was defined as CFU reductions of ≥3-log 10 CFU/mL as compared to the inoculum at the 24-hour time point.

In assay [2] the test system is K. pneumoniae (1_1_5 HM-44). Description: microbe, parasite or virus in culture. It is filed as cell-based, Klebsiella pneumoniae.
The test system of a further assay is E. coli. Nature of the assay: GN370 time-kill assay, E. coli. The format is cell-based, Escherichia coli. Particulars: for Log10 CFU/mL: E. coli AR-128. How it is done: A kinetic analysis of GN370 bactericidal activity was performed using a time-kill assay format in which CFU reductions of each target organism (P. aeruginosa, K. pneumoniae, A. baumannii, E. coli, and E. cloacae) were measured over 24 hours at 37° C. […] Bactericidal activity was defined as CFU reductions of ≥3-log 10 CFU/mL as compared to the inoculum at the 24-hour time point. See Methods for Determining Bactericidal Activity of Antimicrobial Agents; Approved Guideline, NCCLS document M26-A, CLSI 1999 (Wayne, PA).

Turning to “MRLKMARRRYRLPRRRSRRLFSRTALRMHPRNRLRRIMRGGIRF [AM1]”, the “change in MIC over serial passage” value with A. xylosoxidans is given as “no increase in the MICs”.

B1: GN370: lysin-AMP construct, SEQ ID NO: 149: MIDR, FIRL and NPTH moieties N-terminal to GN202 lysin (protein)
chain: MIDRFIRLNPTHGPRRPRRPGRRAPVRTSQRGIDLIKSFEGLRLSAYQDSVGVWTIGYGTTRGVTRYMTITVEQAERMLSNDIQRFEPELDRLAKVPLNQNQWDALMSFVYNLGAANLASSTLLDLLNKGDYQGAADQFPHWVNAGGKRLDGLVKRRAAERALFLEPLS
modifications: GN370 lysin
In assay [1], B1 returned an MIC50 above 64 mg/L. This molecule also registered an MIC90 in assay [1] above 64 mg/L. For the same molecule, the “MIC Range” value in assay [1] was above 64 mg/L. The “change in MIC over 28-day serial passage” value in the assay on E. cloacae (ATCC 13047) (E. cloacae (ATCC 13047)) was at most 2 fold; in assay [2] (K. pneumoniae (1_1_5 HM-44)), at most 2 fold; in assay [2] (K. pneumoniae, another instance), “no change”. Moreover, the MIC was 1 mg/L against E. cloacae (ATCC 13047) (E. cloacae ATCC 13047, target organism of serial passage study) and 2 mg/L in assay [2] (K. pneumoniae 1_1_5_HM-44, target organism of serial passage study). Also, the “Log10 CFU/mL” value in the assay with A. baumannii (0.2x MIC, 1 hr) amounted to 3.8 Log10 CFU/mL; in the assay on A. baumannii (0.2x MIC, 3 hr) it was 4.0 Log10 CFU/mL; with A. baumannii (0.2x MIC, 24 hr) it was 5.8 Log10 CFU/mL; with A. baumannii (1x MIC, 1 hr) it was 1.5 Log10 CFU/mL; in the assay on A. baumannii (1x MIC, 3 hr) it was 1.5 Log10 CFU/mL; in the assay on A. baumannii (1x MIC, 24 hr), 1.5 Log10 CFU/mL. The “Log10 CFU/mL” value in the assay on A. baumannii (2x MIC, 1 hr) was 1.5 Log10 CFU/mL; in the assay with A. baumannii (2x MIC, 3 hr), 1.5 Log10 CFU/mL; in the assay on A. baumannii (2x MIC, 24 hr), 1.5 Log10 CFU/mL; in the assay on A. baumannii (5x MIC, 1 hr), 1.5 Log10 CFU/mL; in the assay on A. baumannii (5x MIC, 3 hr), 1.5 Log10 CFU/mL; with A. baumannii (5x MIC, 24 hr) it was 1.5 Log10 CFU/mL. For the same molecule, the “Log10 CFU/mL” value with E. coli (0.2x MIC, 24 hr) came to 8.4 Log10 CFU/mL; with E. coli (1x MIC, 1 hr) it was 4.4 Log10 CFU/mL; in the assay with E. coli (1x MIC, 3 hr), 2.5 Log10 CFU/mL; with E. coli (2x MIC, 1 hr), 4.4 Log10 CFU/mL; in the assay on E. coli (2x MIC, 3 hr), 2.2 Log10 CFU/mL; in the assay on E. coli (5x MIC, 1 hr), 3.0 Log10 CFU/mL. Besides, the “concentration with bactericidal activity (≥3-log 10 CFU/mL reduction at 24 hours)” value in the assay on A. baumannii (A. baumannii, 37° C.) is at least 1 ×MIC; in the assay on E. coli (E. coli, 37° C.) it was at least 1 ×MIC.
